Data on eight molecules can be found in patent publication US11371056B2, “HPPD variants and methods of use” (BASF Agricultural Solutions Seed US LLC, priority 2017, dated 2022).

In the series the test system is Pseudomonas fluorescens HPPD polypeptide (wild-type and mutants). Nature of the series: Coupled HPPD activity assay: turnover and residual turnover in crude HPPD polypeptide extracts with and without Cmpd. 1. It counts as biochemical. The settings on record: for Residual turnover: presence of 100 μM Cmpd. 1; for Residual turnover / Turnover: changes in absorbance (OD) at 320 nm in the coupled assay, 30 min; for turnover and residual turnover, comparison in words: 100 μM Cmpd. 1, Table 3; for Residual turnover [%]: 100 μM Cmpd. 1, normalised to turnover without inhibitor; for Turnover: absence of Cmpd. 1. The protocol:
For the generation of crude HPPD polypeptide extract in micro titer plates (MTP) for the determination of residual activity in inhibition assays, cells were grown in 40 or 150 μl LB medium containing 1% Glucose (Merck, Darmstadt, Germany) and 100 μg/ml ampicillin in a standard 96 well plate (Thermo Fisher Scientific, Waltham, USA) incubated for about 18 h in a humidity incubator at 37° C. 30 μl of this starter culture were added to 600 μl LB medium containing 100 μg/ml ampicillin and 150 mM Hepes (Merck, Darmstadt, Germany) as inoculum for the expression culture in 96 well plates (2 ml deep wells; HJ Bioanalytik, Erkelenz, Germany). The plates were sealed by an aluminium foil, and cells were incubated for 5 h at 37° C. on a plate shaker at 750 rpm. The expression was induced by addition of IPTG in a final concentration of 1 mM followed by further sealed incubation for about 18 h at 30° C. on a plate shaker at 750 rpm.
Cells were harvested by centrifugation at 4° C., 2500 g for 15 min discarding the supernatant. Cell pellets were stored at −80° C. and lysed in 250 μl 1× BugBuster® (Merck, Darmstadt, Germany) in 140 mM Tris (pH 7.8), with 1:25000 diluted BNase® (Qiagen, Hilden, Germany) by incubation of the resuspended cells for 30 min at 4° C. and 1000 rpm. Lysates were clarified by centrifugation for 15 min at 4° C., 2500 g, and 150 μl supernatant were transferred in standard 96 well plate (Thermo Fisher Scientific, Waltham, USA) for subsequent testing in quadruplets.
The activity of HPPD polypeptides was determined in absence or presence of HPPD inhibitors using the coupled HPPD activity assay (FIG. 1).
For the determination of the residual activity, the apparent kinetic constant (kapp) of the determined substrate conversion was measured as kinetic changes in absorbance (OD) at 320 nm in a coupled assay, in that homogentisate (HGA) formed by HPPD from HPP is directly converted into the well absorbing molecule maleylacetoacetate (MAA) by a second enzyme homogentisate dioxygenase (HGD), applied in excess uniformly in all assays (see FIG. 1). The measurements were performed in 384 micro titer plates (Greiner Bio-One GmbH, Frickenhausen, Germany) by plate readers (Tecan infinite M1000 or M1000PRO, Tecan, Männedorf, Switzerland). The kcat/kM ratio of an enzymatic activity is proportional to the apparent kinetic constant kapp and is proportional to kcat/kM*[E] ([E]=enzyme concentration). […] As both kapp measurements in the presence and absence of inhibitor were performed by use of the identical enzyme sample, crude or purified, and thereby at the same enzyme concentration, the enzyme concentration eliminates from the calculation of residual activity and the ratio of both kapp directly indicates the change of kM due to the inhibition.
The assay solution used for determination of residual activities in raw HPPD polypeptide samples was composed by 200 mM sodium phosphate (Merck, Darmstadt, Germany, pH 7.0), 5 mM MgCl2 (Merck, Darmstadt, Germany), 20 mM ascorbate (Sigma-Aldrich, St. Louis, USA), 1 mM DTT (Sigma-Aldrich, St. Louis, USA), 0.1% Pluronic F-68 (Sigma-Aldrich, St. Louis, USA), 40 μM FeSO4 (Sigma-Aldrich, St. […] Louis, USA) and equilibrated for 20 min on ice.

B1: SEQ ID NO:1: reference wild-type Pseudomonas fluorescens HPPD polypeptide (protein, listed as Pseudomonas fluorescens)
chain: MADLYENPMGLMGFEFIEFASPTPGTLEPIFEIMGFTKVATHRSKNVHLYRQGEINLILNNEPNSIASYFAAEHGPSVCGMAFRVKDSQKAYNRALELGAQPIHIDTGPMELNLPAIKGIGGAPLYLIDRFGEGSSIYDIDFVYLEGVERNPVGAGLKVIDHLTHNVYRGRMVYWANFYEKLFNFREARYFDIKGEYTGLTSKAMSAPDGMIRIPLNEESSKGAGQIEEFLMQFNGEGIQHVAFLTDDLVKTWDALKKIGMRFMTAPPDTYYEMLEGRLPDHGEPVDQLQARGILLDGSSVEGDKRLLLQIFSETLMGPVFFEFIQRKGDDGFGEGNFKALFESIERDQVRRGVLTAD
modifications: 4-hydroxyphenylpyruvate dioxygenase (HPPD; Pseudomonas fluorescens) (1)..(358)
Turning to B1, the Residual turnover is 0.042. The “time-course of inhibition, inhibitor characteristic” value (HPPD inhibitor herbicides, FIG. 2: 200 μM HPP, 0, 4 or 13 μM Cmpd. 1) was “slow and tight binding inhibitor”.

B2: SEQ ID NO:36 (protein)
chain: MADLYENPMGLMGFEFIEFASPTPGTLEPIFEIMGFTKVATHRSKNVHLYRQGEINLILNNEPNSIASYFAAEHGPSVCGMAFRVKDSQKAYNRALELGAQPIHIDTGPMELNLPAIKGIGGAPLYLIDRFGEGSSIYDIDFVYLEGVERNPVGAGLKVIDHLTHNVYRGRMVYWANFYEKLFNFREARYFDIKGEYTGLTSKAMSAPDGMIRIPLNEESSKGAGQIEEFLMQFNGEGIQHVAFLTDDLVKTWDALKKIGMRFMTAPGDEYYEMLEGRLPDHGEPVDQLQARGILLDGSSVEGDKRLLLQIFSEQLMGPVFFEFIQRKGDDGFGPHSFKVLFEQMERDQVRRGVLTAD
modifications: mutant HPPD polypeptide
For the molecule B2, the “turnover and residual turnover, comparison in words” value (from here on “turnover and residual turnover”) is “increases significantly the turnover and residual turnover”; the “Residual turnover [%]” value came out at 66%; the Turnover came out at 0.244; the Residual turnover is on record as 0.162.

B3: SEQ ID NO:26 (protein)
chain: MADLYENPMGLMGFEFIEFASPTPGTLEPIFEIMGFTKVATHRSKNVHLYRQGEINLILNNEPNSIASYFAAEHGPSVCGMAFRVKDSQKAYNRALELGAQPIHIDTGPMELNLPAIKGIGGAPLYLIDRFGEGSSIYDIDFVYLEGVERNPVGAGLKVIDHLTHNVYRGRMVYWANFYEKLFNFREARYFDIKGEYTGLTSKAMSAPDGMIRIPLNEESSKGAGQIEEFLMQFNGEGIQHVAFLTDDLVKTWDALKKIGMRFLTAPGDEYYEMLEGRLPDHGEPVDQLQARGILLDGSSVEGDKRLLLQIFSEQLMGPVFFEFIQRKGDDGFGPHSFKVLFESIERDQVRRGVLTAD
modifications: mutant HPPD polypeptide
Take B3: the “turnover and residual turnover” value was “significant improvement regarding residual turnover”; the “Residual turnover [%]” value was 60%; the Turnover is given as 0.235; the Residual turnover is reported as 0.14.

B4: SEQ ID NO:35 (protein)
chain: MADLYENPMGLMGFEFIEFASPTPGTLEPIFEIMGFTKVATHRSKNVHLYRQGEINLILNNEPNSIASYFAAEHGPSVCGMAFRVKDSQKAYNRALELGAQPIHIDTGPMELNLPAIKGIGGAPLYLIDRFGEGSSIYDIDFVYLEGVERNPVGAGLKVIDHLTHNVYRGRMVYWANFYEKLFNFREARYFDIKGEYTGLTSKAMSAPDGMIRIPLNEESSKGAGQIEEFLMQFNGEGIQHVAFLTDDLVKTWDALKKIGMRFMTAPGDEYYEMLEGRLPDHGEPVDQLQARGILLDGSSVEGDKRLLLQIFSEKLMGPVFFEFIQRKGDDGFGPHSFKVLFEQMERDQVRRGVLTAD
modifications: mutant HPPD polypeptide
Take B4: the “turnover and residual turnover” value is “increases significantly the turnover and residual turnover”; the “Residual turnover [%]” value worked out at 59%; the Turnover came out at 0.27; the Residual turnover is 0.158.

B5: SEQ ID NO:28 (protein)
chain: MADLYENPMGLMGFEFIEFASPTPGTLEPIFEIMGFTKVATHRSKNVHLYRQGEINLILNNEPNSIASYFAAEHGPSVCGMAFRVKDSQKAYNRALELGAQPIHIDTGPMELNLPAIKGIGGAPLYLIDRFGEGSSIYDIDFVYLEGVERNPVGAGLKVIDHLTHNVYRGRMVYWANFYEKLFNFREARYFDIKGEYTGLTSKAMSAPDGMIRIPLNEESSKGAGQIEEFLMQFNGEGIQHVAFLTDDLVKTWDALKKIGMRFLTAPGDEYYEMLEGRLPDHGEPVDQLQARGILLDGSSVEGDKRLLLQIFSETLMGPVFFEFIQRKGDDGFGPHSFKVLFESIERDQVRRGVLTAD
modifications: mutant HPPD polypeptide
For B5, the “turnover and residual turnover” value is “decreases the turnover and residual turnover”; the “Residual turnover [%]” value is recorded as 50%; the Turnover is on record as 0.203; the Residual turnover amounted to 0.102.

B6: SEQ ID NO:38 (protein)
chain: MADLYENPMGLMGFEFIEFASPTPGTLEPIFEIMGFTKVATHRSKNVHLYRQGEINLILNNEPNSIASYFAAEHGPSVCGMAFRVKDSQKAYNRALELGAQPIHIDTGPMELNLPAIKGIGGAPLYLIDRFGEGSSIYDIDFVYLEGVERNPVGAGLKVIDHLTHNVYRGRMVYWANFYEKLFNFREARYFDIKGEYTGLTSKAMSAPDGMIRIPLNEESSKGAGQIEEFLMQFNGEGIQHVAFLTDDLVKTWDALKKIGMRFMTAPGDEYYEMLEGRLPDHGEPVDQLQARGILLDGSSVEGDKRLLLQIFSETLMGPVFFEFIQRKGDDGFGPHSFKVLFEQMERDQVRRGVLTAD
modifications: mutant HPPD polypeptide
On to B6, for which the “turnover and residual turnover” value is on record as “does not show a significant turnover”; the Turnover came to 0.008; the Residual turnover was 0.007.

B7: SEQ ID NO:57 (protein)
chain: MADLYENPMGLMGFEFIEFASPTPGTLEPIFEIMGFTKVATHRSKNVHLYRQGEINLILNNEPNSIASYFAAEHGPSVCGMAFRVKDSQKAYNRALELGAQPIHIDTGPMELNLPAIKGIGGAPLYLIDRFGEGSSIYDIDFVYLEGVERNPVGAGLKVIDHLTHNVYRGRMVYWANFYEKLFNFREARYFDIKGEYTGLTSKAMSAPDGMIKIPLNEESSKGAGQIEEFLMQFNGEGIQHVAFLTDDLVKTWDALKKIGMRFMTAPGDEYYEMLEGRLPDHGEPVDQLQARGILLDGSSVEGDKRLLLQIFSEQLMGPVFFEFIQRKGDDGFGPHSFKVLFEQMERDQVRRGVLTAD
modifications: mutant HPPD polypeptide
As for B7, the “turnover and residual turnover” value was “increases significantly the absolute turnover”; the “Residual turnover [%]” value is on record as 68%; the Turnover amounted to 0.34; the Residual turnover stood at 0.232.

B8: SEQ ID NO:2 (protein)
chain: MADLYENPMGLMGFEFIEFASPTPGTLEPIFEIMGFTKVATHRSKNVHLYRQGEINLILNNEPNSIASYFAAEHGPSVCGMAFRVKDSQKAYNRALELGAQPIHIDTGPMELNLPAIKGIGGAPLYLIDRFGEGSSIYDIDFVYLEGVERNPVGAGLKVIDHLTHNVYRGRMVYWANFYEKLFNFREARYFDIKGEYTGLTSKAMSAPDGMIRIPLNEESSKGAGQIEEFLMQFNGEGIQHVAFLTDDLVKTWDALKKIGMRFMTAPPDTYYEMLEGRLPDHGEPVDQLQARGILLDGSSVEGDKRLLLQIFSETLMGPVFFEFIQRKGDDGFGPWNFAQLFESIERDQVRRGVLTAD
modifications: mutant HPPD polypeptide
With B8, the Turnover is recorded as 0.092 and the Residual turnover is on record as 0.041.
